Data from IntAct's records for PubMed 25910212.

B1: DNA ligase 4 (Homo sapiens), P49917 (parent)
chain: MAASQTSQTVASHVPFADLCSTLERIQKSKGRAEKIRHFREFLDSWRKFHDALHKNHKDVTDSFYPAMRLILPQLERERMAYGIKETMLAKLYIELLNLPRDGKDALKLLNYRTPTGTHGDAGDFAMIAYFVLKPRCLQKGSLTIQQVNDLLDSIASNNSAKRKDLIKKSLLQLITQSSALEQKWLIRMIIKDLKLGVSQQTIFSVFHNDAAELHNVTTDLEKVCRQLHDPSVGLSDISITLFSAFKPMLAAIADIEHIEKDMKHQSFYIETKLDGERMQMHKDGDVYKYFSRNGYNYTDQFGASPTEGSLTPFIHNAFKADIQICILDGEMMAYNPNTQTFMQKGTKFDIKRMVEDSDLQTCYCVFDVLMVNNKKLGHETLRKRYEILSSIFTPIPGRIEIVQKTQAHTKNEVIDALNEAIDKREEGIMVKQPLSIYKPDKRGEGWLKIKPEYVSGLMDELDILIVGGYWGKGSRGGMMSHFLCAVAEKPPPGEKPSVFHTLSRVGSGCTMKELYDLGLKLAKYWKPFHRKAPPSSILCGTEKPEVYIEPCNSVIVQIKAAEIVPSDMYKTGCTLRFPRIEKIRDDKEWHECMTLDDLEQLRGKASGKLASKHLYIGGDDEPQEKKRKAAPKMKKVIGIIEHLKAPNLTNVNKISNIFEDVEFCVMSGTDSQPKPDLENRIAEFGGYIVQNPGPDTYCVIAGSENIRVKNIILSNKHDVVKPAWLLECFKTKSFVPWQPRFMIHMCPSTKEHFAREYDCYGDSYFIDTDLNQLKEVFSGIKNSNEQTPEEMASLIADLEYRYSWDCSPLSMFRRHTVYLDSYAVINDLSTKNEGTRLAIKALELRFHGAKVVSCLAEGVSHVIIGEDHSRVADFKAFRRTFKRKFKILKESWVTDSIDKCELQEENQYLI
B2: Phakinin (Homo sapiens), Q13515 (parent)
chain: MSERRVVVDLPTSASSSMPLQRRRASFRGPRSSSSLESPPASRTNAMSGLVRAPGVYVGTAPSGCIGGLGARVTRRALGISSVFLQGLRSSGLATVPAPGLERDHGAVEDLGGCLVEYMAKVHALEQVSQELETQLRMHLESKATRSGNWGALRASWASSCQQVGEAVLENARLMLQTETIQAGADDFKERYENEQPFRKAAEEEINSLYKVIDEANLTKMDLESQIESLKEELGSLSRNYEEDVKLLHKQLAGCELEQMDAPIGTGLDDILETIRIQWERDVEKNRVEAGALLQAKQQAEVAHMSQTQEEKLAAALRVELHNTSCQVQSLQAETESLRALKRGLENTLHDAKHWHDMELQNLGAVVGRLEAELREIRAEAEQQQQERAHLLARKCQLQKDVASYHALLDREESG
partner: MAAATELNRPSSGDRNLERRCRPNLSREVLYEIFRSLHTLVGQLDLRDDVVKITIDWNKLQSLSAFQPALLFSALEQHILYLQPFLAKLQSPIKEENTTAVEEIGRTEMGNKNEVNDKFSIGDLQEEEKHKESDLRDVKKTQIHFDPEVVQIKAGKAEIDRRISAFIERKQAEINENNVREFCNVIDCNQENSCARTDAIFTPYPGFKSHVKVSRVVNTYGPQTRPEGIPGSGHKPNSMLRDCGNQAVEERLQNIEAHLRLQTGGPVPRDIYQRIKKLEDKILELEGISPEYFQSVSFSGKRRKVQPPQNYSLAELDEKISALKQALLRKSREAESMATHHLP
B3: Myelin proteolipid protein (Homo sapiens), P60201-2 (parent)
chain: MGLLECCARCLVGAPFASLVATGLCFFGVALFCGCGHEALTGTEKLIETYFSKNYQDYEYLINVIHAFQYVIYGTASFFFLYGALLLAEGFYTTGAVRQIFGDYKTTICGKGLSATFVGITYALTVVWLLVFACSAVPVYIYFNTWTTCQSIAFPSKTSASIGSLCADARMYGVLPWNAFPGKVCGSNLLSICKTAEFQMTFHLFIAAFVGAAATLVSLLTFMIAATYNFAVLKLMGRGTKF
partner: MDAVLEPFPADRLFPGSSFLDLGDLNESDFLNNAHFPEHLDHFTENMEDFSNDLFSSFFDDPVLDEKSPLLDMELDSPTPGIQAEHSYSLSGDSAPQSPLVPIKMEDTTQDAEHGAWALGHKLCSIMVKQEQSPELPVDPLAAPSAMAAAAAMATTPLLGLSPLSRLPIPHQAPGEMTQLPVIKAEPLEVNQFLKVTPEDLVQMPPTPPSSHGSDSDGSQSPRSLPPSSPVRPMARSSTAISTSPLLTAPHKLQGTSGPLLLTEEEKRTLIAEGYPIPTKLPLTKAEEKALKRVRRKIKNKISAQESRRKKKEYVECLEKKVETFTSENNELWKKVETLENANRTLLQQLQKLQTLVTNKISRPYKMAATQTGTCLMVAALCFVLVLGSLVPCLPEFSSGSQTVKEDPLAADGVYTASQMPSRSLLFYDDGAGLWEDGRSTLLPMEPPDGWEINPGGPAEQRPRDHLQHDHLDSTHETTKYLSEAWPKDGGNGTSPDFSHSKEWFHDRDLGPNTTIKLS
B4: Acetylcholine receptor subunit gamma (Homo sapiens), P07510-2 (parent)
chain: MHGGQGPLLLLLLLAVCLGAQGRNQEERLLADLMQNYDPNLRPAERDSDVVNVSLKLTLTNLISLNEREEALTTNVWIEMQWCDYRLRWDPRDYEGLWVLRVPSTMVWRPDIVLENKSQTYSTNEIDLQLSQEDGQTIEWIFIDPEAFTENGEWAIQHRPAKMLLDPAAPAQEAGHQKVVFYLLIQRKPLFYVINIIAPCVLISSVAILIHFLPAKAGGQKCTVAINVLLAQTVFLFLVAKKVPETSQAVPLISKYLTFLLVVTILIVVNAVVVLNVSLRSPHTHSMARGVRKVFLRLLPQLLRMHVRPLAPAAVQDTQSRLQNGSSGWSITTGEEVALCLPRSELLFQQWQRQGLVAAALEKLEKGPELGLSQFCGSLKQAAPAIQACVEACNLIACARHQQSHFDNGNEEWFLVGRVLDRVCFLAMLSLFICGTAGIFLMAHYNRVPALPFPGDPRPYLPSPD
partner: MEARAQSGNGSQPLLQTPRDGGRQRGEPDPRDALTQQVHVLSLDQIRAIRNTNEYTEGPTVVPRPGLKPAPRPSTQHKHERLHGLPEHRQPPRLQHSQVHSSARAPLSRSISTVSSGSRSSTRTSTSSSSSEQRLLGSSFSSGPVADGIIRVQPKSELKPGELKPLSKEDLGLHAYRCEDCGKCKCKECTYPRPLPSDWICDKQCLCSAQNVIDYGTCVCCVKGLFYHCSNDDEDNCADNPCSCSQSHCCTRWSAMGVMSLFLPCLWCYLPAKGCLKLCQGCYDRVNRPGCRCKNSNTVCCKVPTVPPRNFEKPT
B5: Progranulin (Homo sapiens), P28799 (parent)
chain: MWTLVSWVALTAGLVAGTRCPDGQFCPVACCLDPGGASYSCCRPLLDKWPTTLSRHLGGPCQVDAHCSAGHSCIFTVSGTSSCCPFPEAVACGDGHHCCPRGFHCSADGRSCFQRSGNNSVGAIQCPDSQFECPDFSTCCVMVDGSWGCCPMPQASCCEDRVHCCPHGAFCDLVHTRCITPTGTHPLAKKLPAQRTNRAVALSSSVMCPDARSRCPDGSTCCELPSGKYGCCPMPNATCCSDHLHCCPQDTVCDLIQSKCLSKENATTDLLTKLPAHTVGDVKCDMEVSCPDGYTCCRLQSGAWGCCPFTQAVCCEDHIHCCPAGFTCDTQKGTCEQGPHQVPWMEKAPAHLSLPDPQALKRDVPCDNVSSCPSSDTCCQLTSGEWGCCPIPEAVCCSDHQHCCPQGYTCVAEGQCQRGSEIVAGLEKMPARRASLSHPRDIGCDQHTSCPVGQTCCPSLGGSWACCQLPHAVCCEDRQHCCPAGYTCNVKARSCEKEVVSAQPATFLARSPHVGVKDVECGEGHFCHDNQTCCRDNRQGWACCPYRQGVCCADRRHCCPAGFRCAARGTKCLRREAPRWDAPLRDPALRQLL
partner: B4 partner
B6: Interleukin-1 alpha (Homo sapiens), P01583 (parent)
chain: MAKVPDMFEDLKNCYSENEEDSSSIDHLSLNQKSFYHVSYGPLHEGCMDQSVSLSISETSKTSKLTFKESMVVVATNGKVLKKRRLSLSQSITDDDLEAIANDSEEEIIKPRSAPFSFLSNVKYNFMRIIKYEFILNDALNQSIIRANDQYLTAAALHNLDEAVKFDMGAYKSSKDDAKITVILRISKTQLYVTAQDEDQPVLLKEMPEIPKTITGSETNLLFFWETHGTKNYFTSVAHPNLFIATKQDYWVCLAGGPPSITDFQILENQA
B7: Glial cell line-derived neurotrophic factor (Homo sapiens), P39905 (parent)
chain: MKLWDVVAVCLVLLHTASAFPLPAGKRPPEAPAEDRSLGRRRAPFALSSDSNMPEDYPDQFDDVMDFIQATIKRLKRSPDKQMAVLPRRERNRQAAAANPENSRGKGRRGQRGKNRGCVLTAIHLNVTDLGLGYETKEELIFRYCSGSCDAAETTYDKILKNLSRNRRLVSDKVGQACCRPIAFDDDLSFLDDNLVYHILRKHSAKRCGCI

Variants of: B1
Conditions: with xrcc4_human XRCC4, Q13426
Sequence of xrcc4_human XRCC4, Q13426 (Q13426 whole entry): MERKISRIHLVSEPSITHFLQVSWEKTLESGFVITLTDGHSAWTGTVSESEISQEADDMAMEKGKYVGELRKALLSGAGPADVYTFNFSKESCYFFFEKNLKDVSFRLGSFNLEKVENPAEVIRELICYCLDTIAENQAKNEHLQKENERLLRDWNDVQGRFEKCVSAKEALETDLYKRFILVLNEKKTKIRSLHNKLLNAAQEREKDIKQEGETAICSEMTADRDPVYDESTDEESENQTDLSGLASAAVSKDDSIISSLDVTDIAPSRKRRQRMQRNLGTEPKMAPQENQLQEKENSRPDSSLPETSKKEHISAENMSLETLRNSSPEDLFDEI

| Variant | effect of a mutation on the interaction |
| --- | --- |
| A857T | with no effect |

Variants of: B2
Conditions: with MBIP

| Variant | effect of a mutation on the interaction |
| --- | --- |
| R339H | with no effect |
| A407D | with no effect |

Variants of: B3
Conditions: with cr3l1_human CREB3L1, Q96BA8

| Variant | effect of a mutation on the interaction |
| --- | --- |
| W128L | disrupting interaction strength |
| A213E | disrupting interaction strength |
| L87P | disrupting interaction strength |
| P15L | disrupting interaction strength |

Variants of: B4
Conditions: with spy2_human SPRY2, O43597

| Variant | effect of a mutation on the interaction |
| --- | --- |
| R187C | disrupting interaction strength |
| R86C | disrupting interaction strength |
| V107G | disrupting interaction strength |

Variants of: B5
Conditions: with spy2_human SPRY2, O43597

| Variant | effect of a mutation on the interaction |
| --- | --- |
| A9D | disrupting interaction strength |
| P248L | with no effect |
| R432C | disrupting interaction strength |
| P451L | disrupting interaction strength |

Variants of: B6
Conditions: with ima7_human KPNA6, O60684

| Variant | effect of a mutation on the interaction |
| --- | --- |
| S113A | with no effect |
| A114S | with no effect |

Variants of: B6
Conditions: with meox2_human MEOX2, P50222
Sequence of meox2_human MEOX2, P50222 (P50222 whole entry): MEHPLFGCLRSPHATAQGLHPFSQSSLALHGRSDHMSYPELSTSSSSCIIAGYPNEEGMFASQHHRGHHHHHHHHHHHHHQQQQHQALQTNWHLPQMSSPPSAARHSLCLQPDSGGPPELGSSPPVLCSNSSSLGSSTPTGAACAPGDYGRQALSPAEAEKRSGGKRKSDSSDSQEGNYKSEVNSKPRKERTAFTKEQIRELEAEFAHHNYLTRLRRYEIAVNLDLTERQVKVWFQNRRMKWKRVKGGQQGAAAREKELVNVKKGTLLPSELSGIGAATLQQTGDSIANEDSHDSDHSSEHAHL

| Variant | effect of a mutation on the interaction |
| --- | --- |
| S113A | with no effect |
| A114S | with no effect |

Variants of: B7
Conditions: with AGTRAP

| Variant | effect of a mutation on the interaction |
| --- | --- |
| R93W | with no effect |
| P21S | with no effect |
